B1: SAT2 (parent)
chain: GYGIYYFIYSTWKGRTIYLEDIYV
B2: TRIM55 (parent)
chain: YKSFSKEQQTMDNLEKQLICPICL

Variants of: B1
Assay: protein stability index of a GFP-peptide fusion (GPS, HEK-293T) (PSI 1-6); higher = more stable
Settings: c terminus: a fixed tail appended
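Also: lentivirally expressed fusions sorted by FACS into six bins by GFP to DsRed ratio, PSI derived from sequencing read proportions per bin multiplied by bin number.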

Protein stability index: each site, then its substitutions
Y2: N 3.27; Q 4.95; F 1.06; C 2.61
K13: H 2.87; P 1.99; Y 1.48; T 2.87
S10: E 3.09; Q 2.29; P 3.17
G14: Q 3.24; S 2.5; C 5.03
F7: V 3.39; L 2.92; D 3.03; K 3.88; Q 5.82; N 3.37; G 3.36
Y18: F 3.01; M 2.33; A 1.71; V 3.04
E20: L 2.1
I8: D 3.24; L 2.2
D21: M 3.04
I4: K 2.7
Y23: A 2.89; N 3.18; P 2.43
R15: L 3.07; E 3.72
G3: S 3.29
Y9: S 1.59; R 3.86; I 1.62
I22: H 2.55; Y 2.09; E 2.92; C 2.41
G1: E 2.96; M 3.54
T16: V 3.24; M 3.12; E 2.53
T11: M 3.99; I 2.78; V 3.88; Q 2.72
Y5: L 2.15
I17: G 2.82; E 2.77

Variants of: B2
Assay: as above
Settings: c terminus: a fixed tail appended

Protein stability index of substitutions, site by site:
L14: M 2.53; W 2.81; P 2.7; E 3.2; N 2.73; V 2.23; Q 3.27; R 2.58; C 2.51; G 2.6; I 2.06; Y 1.98; H 2.13; K 2.58; F 1.88; A 3.03; S 2.8; D 2.53; T 3.03
Q8: G 2.83; D 2.07; K 1.8; Y 2; E 2.3; C 1.96; N 2.18; L 1.75; A 2.65; M 1.96; W 1.66; T 2.17; F 1.54; S 2.29; I 2.1; R 1.72; H 2.37; V 2.09; P 2
K2: C 1.93; M 2.1; A 2.02; Y 1.95; G 2.92; Q 1.59; W 1.96; R 1.73; H 1.29; N 2.12; S 2.38; D 2.36; P 2.5; E 1.73; L 2.52; V 2.05; F 2.09; I 1.56; T 1.83
D12: L 2.14; Q 2.1; Y 2.57; E 2.59; M 2.26; N 2.37; F 2.68; A 2.04; S 1.93; K 2.98; H 1.93; V 1.89; R 1.93; P 2.43; T 2.42; C 2.17; I 1.93; G 2.56; W 2.11
E15: R 2.12; F 2.1; D 2.13; K 2.09; G 2.41; C 2.72; S 1.79; P 2.51; N 2.33; A 2.79; Q 2.58; H 2.27; L 1.05; M 2.55
S3: P 2.05; I 1.94; L 1.69; Y 1.44; D 2.47; Q 2.2; F 1.65; A 2.02; M 1.85; E 2.25; K 2.44; H 2.45; W 2.18; G 1.69; T 2.69; C 2; R 2.43; N 2.32; V 2.07
F4: N 2.45; M 2; L 2.27; R 2.66; I 2.23; W 1.74; A 2.74; H 2.8; V 2.24; E 2.49; C 2.59; S 2.64; K 2.63; G 2.49; T 2.44; P 2.9; Y 2.34; Q 2.37; D 2.43
K6: S 2.14; F 1.3; H 1.85; T 2.09; P 2.05; A 2.91; C 2.41; E 2.04; Q 2.29; I 1.85; N 2.04; L 2.91; G 2.15; W 2.51; R 2.63; Y 1.98; V 1.49; M 1.57
S5: N 2.4; E 2.26; F 1.71; M 2.11; A 1.89; V 1.99; T 1.92; K 2.48; D 2.18; H 1.81; C 2.73; Q 2.19; L 1.34; I 1.96; G 2.13; R 2.11; W 1.37; P 2.07; Y 2.26
E7: R 1.87; G 1.53; A 2.08; N 2.18; T 1.96; V 1.6; Q 1.67; P 2.27; D 2.29; W 1.83; M 2.37; L 1.35; S 1.67; I 2.4; H 2.36; Y 1.72; C 1.98; K 2.25; F 1.87
N13: L 2.82; E 1.87; G 2.35; S 1.91; D 2.77; V 1.68; C 2.02; F 2.34; W 2.05; H 1.95; T 2.81; Q 2.53; A 1.57; Y 1.83; P 2.03; K 2.09; M 1.69; R 1.79; I 1.77
M11: S 2.29; F 2.24; V 2.68; D 2.68; E 2.69; N 3.68; K 2.54; I 1.83; P 2.66; G 2.22; W 1.55; L 2.3; H 1.82; R 2.77; C 2.47; T 2.12; Y 2.1; Q 2.69; A 2.74
Y1: Q 2.15; H 3.12; S 3.02; F 2.02; M 2.5; L 2.94; I 1.99; T 2.62; C 2.7; D 3.46; E 2.48; W 2.17; K 2.68; R 2.83; V 1.97; G 2.35; P 2.7; A 2.5; N 2.48
Q9: Y 2.7; R 2.5; V 1.76; F 1.79; D 2.8; N 2.22; W 1.67; K 2.15; H 1.98; I 1.79; S 1.75; G 2.39; T 1.57; M 2.17; E 2.08; P 2.16; C 2.15; A 2.25; L 1.87
T10: A 1.74; E 2.33; P 2.53; Q 2.31; C 2.82; Y 1.92; W 1.77; F 1.29; K 2.54; V 2.04; I 1.65; D 2.08; L 2.18; G 2.27; H 2.03; S 2.46; R 2.03; N 2.26; M 1.9

From the supplement of paper PMC10567573
